From patent US7521047 (GPC BIOTECH, dated 2009)
Where a chain is given by its changes, count along the chain named. Each block holds one binder with its values, some of them ahead of it.

Legend:
[1] = target: T1, human MHC class II DR protein (DRA*0101/DRB1*0401), purified from PRIESS cells (human, UniProt P01903 26-254; P01911 30-266, limits assumed); assay: BiaCore, IgG4
T1 construct: mature; also called HLA-DR protein; MHCII
T1 MHC II alpha: not shown
T1 MHC II beta: not shown
Experimental: The affinities for anti-HLA antibody fragments of the invention were measured as follows. All measurements were conducted in HBS buffer (20 mM HEPES, 150 mM NaCl, pH 7.4) at a flow rate of 20 µl/min at 25° C. on a BIAcore3000 instrument (Biacore AB, Sweden). MHC class II DR protein (prepared as example 1) was diluted in 100 mM sodium acetate pH 4.5 to a concentration of […], and coupled to a CM5 chip (Biacore AB) using standard EDC-NHS coupling chemistry with subsequent ethanolamine treatment as manufacturers directions. The coating density of MHCII was adjusted to between 500 and 4000 RU. Affinities were measured by injection of 5 different concentrations of the different antibodies and using the standard software of the Biacore instrument. Regeneration of the coupled surface was achieved using 10 mM glycine pH 2.3 and 7.5 mM NaOH.

[2] = target: T2, HLA-DR (DRA*0101/DRB1*0401) on PRIESS cells (human, UniProt P01903 26-254; P01911 30-266); assay: cell-based or functional assay
T2 MHC II alpha: not shown
T2 MHC II beta: not shown

HLA-DR on ARH-77 cells = HLA-DR on ARH-77 cells (human); assay: cell-based or functional assay
[3] = target: HLA-DR on GRANTA-519 cells (human); assay: cell-based or functional assay
[4] = target: HLA-DR on KARPAS-422 cells (human); assay: cell-based or functional assay
[5] = target: HLA-DR on KARPAS-299 cells (human); assay: cell-based or functional assay
HLA-DR on DOHH-2 cells = HLA-DR on DOHH-2 cells (human); assay: cell-based or functional assay
HLA-DR on SR-786 cells = HLA-DR on SR-786 cells (human); assay: cell-based or functional assay
[6] = target: HLA-DR on MHH-CALL-4 cells (human); assay: cell-based or functional assay
HLA-DR on MN-60 cells = HLA-DR on MN-60 cells (human); assay: cell-based or functional assay
HLA-DR on BJAB cells = HLA-DR on BJAB cells (human); assay: cell-based or functional assay
HLA-DR on RAJI cells = HLA-DR on RAJI cells (human); assay: cell-based or functional assay
HLA-DR on L-428 cells = HLA-DR on L-428 cells (human); assay: cell-based or functional assay
HLA-DR on HDLM-2 cells = HLA-DR on HDLM-2 cells (human); assay: cell-based or functional assay
HLA-DR on HD-MY-Z cells = HLA-DR on HD-MY-Z cells (human); assay: cell-based or functional assay
HLA-DR on KM-H2 cells = HLA-DR on KM-H2 cells (human); assay: cell-based or functional assay
HLA-DR on L1236 cells = HLA-DR on L1236 cells (human); assay: cell-based or functional assay
HLA-DR on BONNA-12 cells = HLA-DR on BONNA-12 cells (human); assay: cell-based or functional assay
HLA-DR on HC-1 cells = HLA-DR on HC-1 cells (human); assay: cell-based or functional assay
HLA-DR on NALM-1 cells = HLA-DR on NALM-1 cells (human); assay: cell-based or functional assay
HLA-DR on L-363 cells = HLA-DR on L-363 cells (human); assay: cell-based or functional assay
HLA-DR on EOL-1 cells = HLA-DR on EOL-1 cells (human); assay: cell-based or functional assay
HLA-DR on LP-1 cells = HLA-DR on LP-1 cells (human); assay: cell-based or functional assay
[7] = target: HLA-DR on RPMI-8226 cells (human); assay: cell-based or functional assay
[8] = target: HLA-DR on MHH-PREB-1 cells (human); assay: cell-based or functional assay
[9] = target: T3, chimeric 0401-IE class II molecule on cells of transgenic mice (human/murine chimera); assay: cell-based or functional assay
[10] = target: T1, human MHC class II DR protein …; assay: SPR (BIAcore), IgG4 over MHCII on CM5 chip
BSA = target: T4, BSA (bovine, UniProt P02769 25-607); assay: ELISA, purified coated protein, OD at 370 nm minus background
T4 construct: negative control antigen; also called bovine serum albumine
T4 sequence (P02769 25-607 limits assumed): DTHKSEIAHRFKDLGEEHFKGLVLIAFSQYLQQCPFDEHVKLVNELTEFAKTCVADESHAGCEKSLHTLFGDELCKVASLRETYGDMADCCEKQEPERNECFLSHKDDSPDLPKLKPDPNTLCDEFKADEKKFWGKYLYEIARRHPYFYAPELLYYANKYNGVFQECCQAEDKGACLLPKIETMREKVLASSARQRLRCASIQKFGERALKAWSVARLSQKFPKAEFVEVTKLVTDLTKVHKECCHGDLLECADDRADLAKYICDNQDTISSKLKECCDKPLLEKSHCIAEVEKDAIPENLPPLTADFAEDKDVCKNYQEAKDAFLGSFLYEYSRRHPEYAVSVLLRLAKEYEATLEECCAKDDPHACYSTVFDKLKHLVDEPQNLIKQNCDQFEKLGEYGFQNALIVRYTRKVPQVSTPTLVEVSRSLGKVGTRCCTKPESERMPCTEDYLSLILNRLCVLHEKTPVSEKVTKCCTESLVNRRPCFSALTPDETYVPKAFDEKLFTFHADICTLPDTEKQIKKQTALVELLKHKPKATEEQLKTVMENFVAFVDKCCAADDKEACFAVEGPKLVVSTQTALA

[11] = target: T3, chimeric 0401-IE class II molecule on …; assay: cell-based or functional assay; remark: listed apart in the source
[12] = target: T2, HLA-DR (DRA*0101/DRB1*0401) on PRIESS …; assay: cell-based or functional assay
[13] = target: T1, human MHC class II DR protein …; assay: SPR (BIAcore), scFv, chip density 500 RU MHCII

Kd [1]: 0.5 nM
koff [1]: 3.3e-05 s⁻¹
kon [1]: 71000 M⁻¹ s⁻¹
IC50 of inhibition of IL-2 secretion from T-Hyb 1 cells [9]: 0.42 nM
Maximum inhibition(%) of IL-2 secretion [9]: 100%
Kd [10]: 0.5 nM
koff [10]: 3e-05 s⁻¹
kon [10]: 70000 M⁻¹ s⁻¹
binding result (BSA): no binding
B1: MS-GPC-8-6-13 IgG4 (antibody, V domains shown)
VH: QVQLKESGPALVKPTQTLTLTCTFSGFSLSTSGVGVGWIRQPPGKALEWLALIDWDDDKYYSTSLKTRLTISKDTSKNQVVLTMTNMDPVDTATYYCARSPRYRGAFDYWGQGTLVTVSS
VL: DIVLTQPPSVSGAPGQRVTISCSGSESNIGANYVTWYQQLPGTAPKLLIYDNNQRPSGVPDRFSGSKSGTSASLAITGLQSEDEADYYCQSYDYDHYVFGGGTKLTVLG
notes: human IgG4 (constant region EMBL K01316) with lambda constant region (EMBL M18645), from CHO-K1 cells; also called 305D3; IgG form of MS-GPC-8-6-13
% Killing by mAb, 50 nM, 4 h [2]: 74%
% Killing by mAb, 50 nM, 4 h (HLA-DR on ARH-77 cells): 87%
% Killing by mAb, 50 nM, 4 h [3]: 73%
% Killing by mAb, 50 nM, 4 h [4]: 71%
% Killing by mAb, 50 nM, 4 h [5]: 76%
% Killing by mAb, 50 nM, 4 h (HLA-DR on DOHH-2 cells): 53%
% Killing by mAb, 50 nM, 4 h (HLA-DR on SR-786 cells): 26%
% Killing by mAb, 50 nM, 4 h [6]: 43%
% Killing by mAb, 50 nM, 4 h (HLA-DR on MN-60 cells): 67%
% Killing by mAb, 50 nM, 4 h (HLA-DR on BJAB cells): 64%
% Killing by mAb, 50 nM, 4 h (HLA-DR on RAJI cells): 83%
% Killing by mAb, 50 nM, 4 h (HLA-DR on L-428 cells): 92%
% Killing by mAb, 50 nM, 4 h (HLA-DR on HDLM-2 cells): 90%
% Killing by mAb, 50 nM, 4 h (HLA-DR on HD-MY-Z cells): 72%
% Killing by mAb, 50 nM, 4 h (HLA-DR on KM-H2 cells): 87%
% Killing by mAb, 50 nM, 4 h (HLA-DR on L1236 cells): 66%
% Killing by mAb, 50 nM, 4 h (HLA-DR on BONNA-12 cells): 86%
% Killing by mAb, 50 nM, 4 h (HLA-DR on HC-1 cells): 93%
% Killing by mAb, 50 nM, 4 h (HLA-DR on NALM-1 cells): 65%
% Killing by mAb, 50 nM, 4 h (HLA-DR on L-363 cells): 19%
% Killing by mAb, 50 nM, 4 h (HLA-DR on EOL-1 cells): 53%
% Killing by mAb, 50 nM, 4 h (HLA-DR on LP-1 cells): 73%
% Killing by mAb, 50 nM, 4 h [7]: 19%
% Killing by mAb, 50 nM, 4 h [8]: 11%

Kd [1]: 0.3 nM
koff [1]: 0.00031 s⁻¹
IC50 value for inhibition of T cell proliferation [11]: 11 nM
IC50 of inhibition of IL-2 secretion from T-Hyb 1 cells [9]: 0.31 nM
Maximum inhibition(%) of IL-2 secretion [9]: 100%
Kd [10]: 0.6 nM
koff [10]: 4e-05 s⁻¹
kon [10]: 70000 M⁻¹ s⁻¹
binding result (BSA): no binding
B2: MS-GPC-8-10-57 IgG4 (antibody, V domains shown)
VH: B1 VH
VL: B1 VL with A31N, T35Q, Y94L, D95I, H96R, Y97H
notes: also called 1C7277; IgG form of MS-GPC-8-10-57
% Killing by mAb, 50 nM, 4 h [2]: 93%
% Killing by mAb, 50 nM, 4 h (HLA-DR on ARH-77 cells): 88%
% Killing by mAb, 50 nM, 4 h [3]: 78%
% Killing by mAb, 50 nM, 4 h [4]: 68%
% Killing by mAb, 50 nM, 4 h [5]: 79%
% Killing by mAb, 50 nM, 4 h (HLA-DR on DOHH-2 cells): 60%
% Killing by mAb, 50 nM, 4 h (HLA-DR on SR-786 cells): 44%
% Killing by mAb, 50 nM, 4 h [6]: 46%
% Killing by mAb, 50 nM, 4 h (HLA-DR on MN-60 cells): 66%
% Killing by mAb, 50 nM, 4 h (HLA-DR on BJAB cells): 67%
% Killing by mAb, 50 nM, 4 h (HLA-DR on RAJI cells): 86%
% Killing by mAb, 50 nM, 4 h (HLA-DR on L-428 cells): 91%
% Killing by mAb, 50 nM, 4 h (HLA-DR on HDLM-2 cells): 84%
% Killing by mAb, 50 nM, 4 h (HLA-DR on HD-MY-Z cells): 57%
% Killing by mAb, 50 nM, 4 h (HLA-DR on KM-H2 cells): 88%
% Killing by mAb, 50 nM, 4 h (HLA-DR on L1236 cells): 66%
% Killing by mAb, 50 nM, 4 h (HLA-DR on BONNA-12 cells): 91%
% Killing by mAb, 50 nM, 4 h (HLA-DR on HC-1 cells): 86%
% Killing by mAb, 50 nM, 4 h (HLA-DR on NALM-1 cells): 78%
% Killing by mAb, 50 nM, 4 h (HLA-DR on L-363 cells): 24%
% Killing by mAb, 50 nM, 4 h (HLA-DR on EOL-1 cells): 49%
% Killing by mAb, 50 nM, 4 h (HLA-DR on LP-1 cells): 70%
% Killing by mAb, 50 nM, 4 h [7]: 26%
% Killing by mAb, 50 nM, 4 h [8]: 8%
EC50 of cell killing, IgG4 [12]: 1.1 nM

Kd [13]: 1500 nM
koff [13]: 0.061 s⁻¹
kon [13]: 41300 M⁻¹ s⁻¹
B3: MS-GPC-1 scFv (scFv)
chain: EVQLKESGPALVKPTQTLTLTCTFSGFSLSTSGVGVGWIRQPPGKALEWLALIDWDDDKYYSTSLKTRLTISKDTSKNQVVLTMTNMDPVDTATYYCARQYGHRGGFDHWGQGTLVTVSSAGGGSGGGGSGGGGSGGGGSDIVLTQPPSVSGAPGQRVTISCSGSSSNIGSNYVSWYQQLPGTAPKLLIYDNNQRPSGVPDRFSGSKSGTSASLAITGLQSEDEADYYCQSYDFNESVFGGGTKLTVLG
